Source: patent US20250002610A1 (Genmab, published 2025)

Molecular target: T1, His-tagged recombinant human FAPα (R&D Systems, Cat #3715-SE) (human, UniProt Q12884 26-760)
T1 construct: not shown: His tag
T1 sequence (looked up): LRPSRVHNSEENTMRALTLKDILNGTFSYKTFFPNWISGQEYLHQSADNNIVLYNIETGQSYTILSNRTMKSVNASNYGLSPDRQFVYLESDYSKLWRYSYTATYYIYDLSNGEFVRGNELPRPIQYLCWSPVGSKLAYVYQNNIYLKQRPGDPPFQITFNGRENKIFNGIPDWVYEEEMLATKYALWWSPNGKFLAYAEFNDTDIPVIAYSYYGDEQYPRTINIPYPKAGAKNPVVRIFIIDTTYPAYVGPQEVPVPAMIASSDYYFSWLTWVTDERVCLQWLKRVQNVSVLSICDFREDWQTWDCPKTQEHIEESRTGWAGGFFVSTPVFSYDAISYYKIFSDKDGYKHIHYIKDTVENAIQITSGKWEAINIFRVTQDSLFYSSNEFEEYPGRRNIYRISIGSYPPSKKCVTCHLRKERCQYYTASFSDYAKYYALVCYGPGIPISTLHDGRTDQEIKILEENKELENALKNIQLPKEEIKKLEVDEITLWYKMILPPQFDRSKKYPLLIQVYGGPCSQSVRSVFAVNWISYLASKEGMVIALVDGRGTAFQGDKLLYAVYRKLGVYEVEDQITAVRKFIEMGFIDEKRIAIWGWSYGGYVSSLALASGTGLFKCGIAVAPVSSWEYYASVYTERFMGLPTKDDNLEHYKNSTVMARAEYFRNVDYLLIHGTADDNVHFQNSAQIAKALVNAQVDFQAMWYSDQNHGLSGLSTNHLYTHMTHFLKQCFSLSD
Experiment: BLI sandwich cross-block assay
Method: Sandwich cross-block experiments were carried out while shaking at 1,000 RPM at 30° C. […] The activated AR2G sensors were loaded with 10 μg/mL of the first antibody in 10 mM Sodium Acetate pH 6.0 (ForteBio, cat. no. 18-1070) for 600 s and quenched with 1 M ethanolamine pH 8.5 (ForteBio, Cat. #18-1071) for 300 s. After a baseline measurement in Sample Diluent (30 s; FortéBio, Cat. #18-1048), the AR2G biosensors containing immobilized antibodies were loaded for 200 s with His-tagged recombinant human FAPα (R&D Systems, Cat #3715-SE, 100 nM in Sample Diluent) for 200 s. The theoretical molecular mass of His-tagged recombinant human FAPα protein based on the amino acid sequence (86 kDa) was used for calculations. The association (200 s) of a second antibody (5 μg/mL in Sample Diluent) was determined. Sensors were regenerated by exposure to 10 mM glycine pH 2.5 (Riedl-deHaen, Cat. #15527) for 5 s, followed by neutralization in Sample Diluent for 5 s; both steps were repeated twice. Subsequently, the sensors containing immobilized first antibody were used again, starting with the baseline step.
Data were acquired using Data Acquisition Software v9 (ForteBio) and analyzed with Data Analysis HT Software v9 (ForteBio). The Y-axis was aligned to the start of the association step and Savitzky-Golay filtering was applied. […]

B1: IgG1-b12 (antibody)
heavy: not shown
light: EIVLTQSPGTLSLSPGERATFSCRSSHSIRSRRVAWYQHKPGQAPRLVIHGVSNRASGISDRFSGSGSGTDFTLTITRVEPEDFALYYCQVYGASSYTFGQGTKLERKRTVAAPSVFIFPPSDEQLKSGTASVVCLLNNFYPREAKVQWKVDNALQSGNSQESVTEQDSKDSTYSLSSTLTLSKADYEKHKVYACEVTHQGLSSPVTKSFNRGEC
notes: HIV gp120 antibody b12 with wild-type IgG1 Fc; also called IgG-b12
  binding result: no binding
